Laboratory results as given in ChEMBL document CHEMBL1137932, “Synthesis of S-alkyl L-homocysteine analogues of glutathione and their kinetic studies with gamma-glutamyl transpeptidase” (Bioorg Med Chem Lett, 2004).

How the values were obtained:
[1] = test system: NC(CC[S+]([O-])CCC(=O)NCC(=O)O)C(=O)O; test: (§1) Michaelis-Menten constant for Gamma-glutamyltranspeptidase in rat kidney
[2] = test system: N[C@@H](CCS(=O)(=O)CCC(=O)NCC(=O)O)C(=O)O; test: as §1

Glutathione hydrolase 1 proenzyme (Rattus norvegicus), P07314, sequence (P07314 whole entry): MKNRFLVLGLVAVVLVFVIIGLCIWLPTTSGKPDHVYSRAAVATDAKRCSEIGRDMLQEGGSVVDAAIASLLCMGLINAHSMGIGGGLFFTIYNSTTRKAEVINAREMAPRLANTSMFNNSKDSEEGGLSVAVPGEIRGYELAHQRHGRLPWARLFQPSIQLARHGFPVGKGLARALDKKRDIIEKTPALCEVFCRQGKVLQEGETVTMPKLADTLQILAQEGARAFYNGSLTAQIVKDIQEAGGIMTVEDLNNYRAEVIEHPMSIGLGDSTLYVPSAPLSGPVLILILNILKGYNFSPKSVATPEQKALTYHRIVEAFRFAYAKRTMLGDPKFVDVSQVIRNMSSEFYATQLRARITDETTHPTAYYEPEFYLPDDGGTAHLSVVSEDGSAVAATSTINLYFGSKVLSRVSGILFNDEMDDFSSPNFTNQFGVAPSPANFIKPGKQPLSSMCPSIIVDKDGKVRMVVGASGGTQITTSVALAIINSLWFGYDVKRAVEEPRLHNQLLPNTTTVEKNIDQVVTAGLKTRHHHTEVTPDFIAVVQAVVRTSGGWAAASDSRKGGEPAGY

## Glutathione hydrolase 1 proenzyme (Rattus norvegicus), P07314
[1]
  Km: 500 µM
[2]
  Km: 590 µM
